Data on 23 molecules can be found in patent US20210277061A1 (UNIVERSITY OF HONG KONG, published 2021).

For assay [1], the target named is T1, AF9 YEATS domain, His-AF9 (1-138) (human, UniProt P42568 1-138).
T1 construct: Expressed in E. coli; not shown: His tag
T1 sequence (looked up): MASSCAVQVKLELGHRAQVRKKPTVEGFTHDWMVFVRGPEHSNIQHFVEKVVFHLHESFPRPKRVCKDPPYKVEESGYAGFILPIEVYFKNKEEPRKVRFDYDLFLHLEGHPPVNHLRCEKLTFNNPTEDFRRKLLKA
Put plainly: photo-cross-linking competition vs photoaffinity probe, in-gel fluorescence.

The target in assay [2] is T1, AF9 YEATS domain, His-AF9 (1-138). The assay is described as above. This is another data set of the same source.
The target is the same in assay [3]. The experiment in a line: ITC. Background: ITC needs no label: the signal is the heat of the interaction.
For assay [4] the target is unchanged. Put plainly: ITC. The source holds these as a separate data set.

Where two headings read alike, the source gives them in different places. No end group written: not given here. *: point of attachment. 2Furoyl = O=C(c1ccco1)*; Cbz = O=C(OCc1ccccc1)*

B1: compound 74 (competitor Cbz-4) (peptide)
peptide: QTARK(2Furoyl)-NH2
modifications: not fully specified (N-terminus)
notes: Full structure only as drawing
One may read the IC50 as the concentration at which inhibition is half-maximal. Low readings indicate inhibition by little substance, high ones a need for much substance. As to B1, the IC50 in assay [1] stood at 0.226 µM; in assay [2], 0.23 µM.

B2: compound 12 (XL-12) (peptide)
peptide: KQTARKSTGG-NH2
modifications: not fully specified (residue 6); also: Lys6 acylated with group R, structure drawing only
notes: also called 4.12
In assay [2], B2 returned a half-maximal inhibitory concentration (IC50) of 10.4 µM.

B3: peptide control (competitor control) (peptide)
peptide: Cbz-QTARK(2Furoyl)-NH2
SMILES: C[C@H](NC(=O)[C@@H](NC(=O)[C@H](CCC(N)=O)NC(=O)OCc1ccccc1)[C@@H](C)O)C(=O)N[C@@H](CCCNC(=N)N)C(=O)N[C@@H](CCCCNC(=O)c1ccco1)C(N)=O
On to B3, for which the IC50 in assay [1] was determined as 0.189 µM.

B4: compound 8 (XL-08) (peptide)
peptide: KQTARK(3‑furancarbonyl)STGG-NH2
notes: also called 4.8
Consider B4, for which the IC50 in assay [2] amounted to 1.7 µM. In other words, the single-digit micromolar range.

B5: compound 15 (XL-15) (peptide)
peptide: KQTARKSTGG-NH2
modifications: not fully specified (residue 6); also: Lys6 acylated with group R, structure drawing only
notes: also called 4.15
B5: the IC50 in assay [2] is 24.5 µM. Against the preceding molecule, the IC50 is about 14-fold higher.

B6: compound 86 (negative control), XL-17 (peptide)
peptide: KQTARK(cyclopentanecarbonyl)STGG-NH2
notes: also called 4.17
Take B6: the IC50 in assay [2] was determined as 34.5 µM.

B7: compound 7 (XL-07) (peptide)
peptide: KQTARK(2Furoyl)STGG-NH2
modifications: N-terminus assumed
SMILES: C[C@H](NC(=O)[C@@H](NC(=O)[C@H](CCC(N)=O)NC(=O)[C@@H](N)CCCCN)[C@@H](C)O)C(=O)N[C@@H](CCCNC(=N)N)C(=O)N[C@@H](CCCCNC(=O)c1ccco1)C(=O)N[C@@H](CO)C(=O)N[C@H](C(=O)NCC(=O)NCC(N)=O)[C@@H](C)O
notes: also called 4.7
Usually Kd stands for the concentration at which binding is half-saturated. Low readings indicate tighter binding, high ones weaker binding. Regarding B7, in assay [3], the “fold binding enhancement over the native crotonyl group (H3K9cr)” value worked out at 4.5 fold. Moreover, in assay [4], binding was characterised by a dissociation constant (Kd) of 3.3 µM, the “N (sites)” value amounted to 0.91 sites, the ΔH was -12.2 kcal/mol and the ΔS is -15.9 cal/mol/deg. In assay [2], this molecule displayed an IC50 of 1.3 µM.

B8: compound 10 (XL-10) (peptide)
peptide: KQTARKSTGG-NH2
modifications: not fully specified (residue 6); also: Lys6 acylated with group R, structure drawing only
notes: also called 4.10
B8 had an IC50 in assay [2] of 10.6 µM.

B9: compound 6 (XL-06) (peptide)
peptide: KQTARK(2‑pyrimidinecarbonyl)STGG-NH2
notes: also called 4.6
In assay [2], B9 registered an IC50 of 3.7 µM.

B10: compound 11 (XL-11) (peptide)
peptide: KQTARKSTGG-NH2
modifications: not fully specified (residue 6); also: Lys6 acylated with group R, structure drawing only
notes: also called 4.11
Turning to B10, the IC50 in assay [2] stood at 15.7 µM. Against the preceding molecule, the IC50 is about 4.2-fold higher.

B11: compound 2 (XL-02) (peptide)
peptide: KQTARKSTGG-NH2
modifications: not fully specified (residue 6); also: Lys6 acylated with group R, structure drawing only
notes: also called 4.2
As for B11, the concentration for half-maximal inhibition (IC50) in assay [2] came to 29.8 µM.

B12: compound 3 (XL-03) (peptide)
peptide: KQTARKSTGG-NH2
modifications: not fully specified (residue 6); also: Lys6 acylated with group R, structure drawing only
notes: also called 4.3
For the molecule B12, in assay [2], the IC50 turned out to be 22.1 µM.

B13: compound 5 (XL-05) (peptide)
peptide: KQTARK(isonicotinoyl)STGG-NH2
notes: also called 4.5
In turn, B13 registered an IC50 in assay [2] of 2.1 µM.

B14: compound 9 (XL-09) (peptide)
peptide: KQTARK(Arg)STGG-NH2
modifications: also: Lys6 acylated with group R, shown only as a drawing
notes: also called 4.9
Take B14: in assay [2], the IC50 came out at 6.5 µM.

B15: compound 14 (XL-14) (peptide)
peptide: KQTARK(4‑oxazolecarbonyl)STGG-NH2
notes: also called 4.14
In assay [2], B15 registered an IC50 of 3 µM.

B16: compound 4 (XL-04) (peptide)
peptide: KQTARKSTGG-NH2
modifications: not fully specified (residue 6); also: Lys6 acylated with group R, structure drawing only
notes: also called 4.4
Take B16: the IC50 in assay [2] turned out to be 22.2 µM.

B17: compound 25 (XL-07i) (peptide)
peptide: H-KQTARK(2Furoyl)-NH2
SMILES: C[C@H](NC(=O)[C@@H](NC(=O)[C@H](CCC(N)=O)NC(=O)[C@@H](N)CCCCN)[C@@H](C)O)C(=O)N[C@@H](CCCNC(=N)N)C(=O)N[C@@H](CCCCNC(=O)c1ccco1)C(N)=O
notes: also called 4.7i
Turning to B17, the IC50 in assay [2] was 0.46 µM.

B18: compound 24 (XL-07h) (peptide)
peptide: H-QTARK(2Furoyl)-NH2
SMILES: C[C@H](NC(=O)[C@@H](NC(=O)[C@@H](N)CCC(N)=O)[C@@H](C)O)C(=O)N[C@@H](CCCNC(=N)N)C(=O)N[C@@H](CCCCNC(=O)c1ccco1)C(N)=O
notes: also called 4.7h
As for B18, the IC50 in assay [2] is 4.5 µM.

B19: compound 47 (competitor A7-L) (peptide)
peptide: Cbz-QTLRK(2Furoyl)-NH2
SMILES: CC(C)C[C@H](NC(=O)[C@@H](NC(=O)[C@H](CCC(N)=O)NC(=O)OCc1ccccc1)[C@@H](C)O)C(=O)N[C@@H](CCCNC(=N)N)C(=O)N[C@@H](CCCCNC(=O)c1ccco1)C(N)=O
notes: as for B1
Turning to B19, the IC50 in assay [1] came out at 0.338 µM; in assay [2], 0.34 µM.

B20: compound 49 (competitor A7-W) (peptide)
peptide: Cbz-QTWRK(2Furoyl)-NH2
SMILES: C[C@@H](O)[C@H](NC(=O)[C@H](CCC(N)=O)NC(=O)OCc1ccccc1)C(=O)N[C@@H](Cc1c[nH]c2ccccc12)C(=O)N[C@@H](CCCNC(=N)N)C(=O)N[C@@H](CCCCNC(=O)c1ccco1)C(N)=O
notes: as for B1
Take B20: the IC50 in assay [1] turned out to be 0.315 µM; in assay [2], 0.32 µM.

B21: compound 53 (competitor T6-A) (peptide)
peptide: Cbz-QAARK(2Furoyl)-NH2
SMILES: C[C@H](NC(=O)[C@H](C)NC(=O)[C@H](CCC(N)=O)NC(=O)OCc1ccccc1)C(=O)N[C@@H](CCCNC(=N)N)C(=O)N[C@@H](CCCCNC(=O)c1ccco1)C(N)=O
notes: as for B1
Turning to B21, the figures for the IC50 in assay [1] and in assay [2] were 0.715 µM and 0.72 µM, respectively.

B22: compound 55 (competitor T6-S) (peptide)
peptide: Cbz-QSARK(2Furoyl)-NH2
SMILES: C[C@H](NC(=O)[C@H](CO)NC(=O)[C@H](CCC(N)=O)NC(=O)OCc1ccccc1)C(=O)N[C@@H](CCCNC(=N)N)C(=O)N[C@@H](CCCCNC(=O)c1ccco1)C(N)=O
notes: as for B1
Regarding B22, the IC50 came out at 0.778 µM in assay [1] and 0.78 µM in assay [2].

B23: compound 16 (XL-16) (peptide)
peptide: KQTARKSTGG-NH2
modifications: not fully specified (residue 6); also: Lys6 acylated with group R, structure drawing only
notes: also called 4.16
Turning to B23, in assay [2], the half-inhibitory concentration (IC50) amounted to 12.6 µM. This lies in the double-digit micromolar range.
